Measured values reported in patent US20230167174A1 (Novartis, published 2023).

T1: human TREM2 on CHO-hDAP12-hTREM2 cells (human, UniProt Q9NZC2 19-230)
T1 sequence: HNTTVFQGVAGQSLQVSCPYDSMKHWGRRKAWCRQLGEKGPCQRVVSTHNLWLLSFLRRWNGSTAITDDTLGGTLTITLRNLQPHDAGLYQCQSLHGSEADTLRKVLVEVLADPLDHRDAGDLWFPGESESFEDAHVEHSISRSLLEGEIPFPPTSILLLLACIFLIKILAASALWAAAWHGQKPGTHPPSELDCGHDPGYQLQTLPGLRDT

T2: hTREM2 IgSF-hTREM1 stalk-hFc (human, UniProt Q9NZC2 19-132; Q9NP99 135-205, limits assumed)
T2 construct: domain: IgSF;domain: stalk region; also called hTREM2 IgSF-T1 stalk-hFc-bio; hTREM2 IgSF-hTREM1 stalk-hFc-bio
T2 sequence (looked up): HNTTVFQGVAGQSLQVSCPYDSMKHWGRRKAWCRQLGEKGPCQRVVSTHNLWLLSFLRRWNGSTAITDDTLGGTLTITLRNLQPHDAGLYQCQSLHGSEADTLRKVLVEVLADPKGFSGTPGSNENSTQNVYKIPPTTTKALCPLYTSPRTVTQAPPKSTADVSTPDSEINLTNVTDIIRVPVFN

T3: TREM2 (isoform 3) on transfected HEK293 cells (human)
T3 construct: also called BC032362
T3 chain: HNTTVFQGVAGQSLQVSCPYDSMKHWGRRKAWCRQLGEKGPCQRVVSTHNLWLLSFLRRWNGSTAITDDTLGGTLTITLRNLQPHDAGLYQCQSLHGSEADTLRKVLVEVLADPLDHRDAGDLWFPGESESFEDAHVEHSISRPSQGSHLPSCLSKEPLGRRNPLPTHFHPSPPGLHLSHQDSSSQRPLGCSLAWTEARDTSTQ


Key:
[1] = target: T4, cyTREM2 ECD (19-174)-APP-Avi (cynomolgus); assay: SET
T4 construct: range 19-174

[2] = target: T1, human TREM2 on CHO-hDAP12-hTREM2 cells; assay: cell-based or functional assay
[3] = target: T4, cyTREM2 ECD (19-174)-APP-Avi; assay: SPR, label free kinetics
[4] = target: T2, hTREM2 IgSF-hTREM1 stalk-hFc; assay: recombinant protein binding
[5] = target: T3, TREM2 (isoform 3) on transfected HEK293 …; assay: plasma membrane protein cell array, HEK293
Method: Human HEK293 cells were grown on glass slides and fixed. Test antibodies were added at 2 µg/ml. Slides were subsequently incubated with an AlexaFluor647 labelled anti-human IgG Fc detection antibody, followed by fluorescence imaging.

[6] = target: T4, cyTREM2 ECD (19-174)-APP-Avi; assay: SPR (Biacore)

| Kd [1] [pM] | Internalization compared to parental after 6 h [2] [fold] | Kd [3] [pM] | S/BG [4] | binding result [5] | Kd [6] [pM] | Binder |
| --- | --- | --- | --- | --- | --- | --- |
| 39 | 1.5 | 39 | > 20 | binds |  | MOR044698 (antibody, V domains shown, also called MOR44698; MOR44698A) VH: QVQLVQSGAEVKKPGASVKVSCKASGYTFTGYHMSWVRQAPGQGLEWMGVINPVSGNTVYAQKFQGRVTMTRDTSISTAYMELSRLRSEDTAVYYCARIPSYTYAFDYWGQGTLVTVSS VL: DIQMTQSPSSLSASVGDRVTITCRASQDISNYLAWYQQKPGKAPKLLIYRASSLQSGVPSRFSGSGSGTDFTLTISSLQPEDFATYYCFQYRHMPSQTFGQGTKVEIKR |
|  |  |  |  |  | 6600 | MOR042596 (antibody, human IgG1, kappa, L234A L235A, V domains shown, full IgG; also called MOR42596) VH: QVQLVQSGAEVKKPGASVKVSCKASGYTFTGYHMSWVRQAPGQGLEWMGVINPVSGNTVYAQKFQGRVTMTRDTSISTAYMELSRLRSEDTAVYYCARIPSYTYAFDYWGQGTLVTVSS VL: DIQMTQSPSSLSASVGDRVTITCRASQDISNYLAWYQQKPGKAPKLLIYRASSLQSGVPSRFSGSGSGTDFTLTISSLQPEDFATYYCQQHGHSPTTFGQGTKVEIKR |
